In patent US20210024654A1 (AMPHIVENA THERAPEUTICS, published 2021):
Residue numbers refer to the chain shown, from its start.

B1: CD33/CD3 tandem diabody 08 (bispecific antibody)
chain: QSVLTQPPSASGTPGQRVTISCSGSRSNIGSNTVNWYQQLPGTAPKLLIYGNNQRPSGVPDRFSGSKSGSSASLAISGLQSEDEADYYCATWDDSLIGWVFGGGTKLTVLGGSGGSEVQLVESGGGLVQPGGSLRLSCAASGFTFSTYAMNWVRQAPGKGLEWVGRIRSKYNNYATYYADSVKDRFTISRDDSKNSLYLQMNSLKTEDTAVYYCARHGNFGNSYVSYFAYWGQGTLVTVSSGGSGGSDIQMTQSPSSLSASVGDRVTITCRSSTGAVTTSNYANWVQQKPGKAPKALIGGTNKRAPGVPSRFSGSLIGDKATLTISSLQPEDFATYYCALWYSNLWVFGQGTKVEIKGGSGGSQVQLVQSGAEVKKPGASVKVSCKASGYTFTSYDINWVRQAPGQGLEWMGWMNPNSGNTGFAQKFQGRVTMTRDTSTSTVYMELSSLRSEDTAVYYCARDRANTDFSYGMDVWGQGTLVTVSSAAAGSHHHHHH
B2: CD33/CD3 tandem diabody 05 (bispecific antibody)
chain: DIQMTQSPSSLSASVGDRVTITCRSSTGAVTTSNYANWVQQKPGKAPKGLIGGTNKRAPGVPARFSGSGSGTDFTLTISSLQPEDFATYYCALWYSNLWVFGQGTKVEIKGGSGGSQVQLVQSGAEVKKPGASVKVSCKASGYTFTSYDINWVRQAPGQGLEWMGWMNPNSGNTGFAQKFQGRVTMTRDTSTSTVYMELSSLRSEDTAVYYCARDRANTDYSFGMDVWGQGTLVTVSSGGSGGQSVLTQPPSASGTPGQRVTISCSGSRSNIGSNTVNWYQQLPGTAPKLLIYGNNQRPSGVPDRFSGSKSGTSASLAISGLQSEDEADYYCATWDDSLIGWVFGGGTKLTVLGGSGGSEVQLVESGGGLVQPGGSLRLSCAASGFTFSTYAMNWVRQAPGKGLEWVGRIRSKYNNYATYYADSVKDRFTISRDDSKNSLYLQMNSLKTEDTAVYYCARHGNFGNSYVSWFAYWGQGTLVTVSSAAAGSHHHHHH
B3: CD33/CD3 tandem diabody 06 (bispecific antibody)
chain: B2 chain with F223L
B4: CD33/CD3 tandem diabody 24 (bispecific antibody)
chain: DIQMTQSPSSLSASVGDRVTITCRSSTGAVTTSNYANWVQQKPGKAPKALIGGTNKRAPGVPSRFSGSLIGDKATLTISSLQPEDFATYYCALWYSNLWVFGQGTKVEIKGGSGGSQVQLVQSGAEVKKPGSSVKVSCKASGGTFDSYAISWVRQAPGQGLEWMGGIIPIFGSAHYSQKFQGRVTITADESTSTAYMELSSLRSEDTAVYYCAREYYYDSSEWAFDIWGQGTLVTVSSGGSGQSVLTQPPSASGTPGQRVTISCSGSSSNIGDNVVNWYQQLPGTAPKLLIYSTNKRPSGVPDRFSGSKSGSSASLAISGLQSEDEADYYCAAWDDSLSAYVFGGGTKLTVLGGSGGSEVQLVESGGGLVQPGGSLRLSCAASGFTFSTYAMNWVRQAPGKGLEWVGRIRSKYNNYATYYADSVKDRFTISRDDSKNSLYLQMNSLKTEDTAVYYCARHGNFGNSYVSYFAYWGQGTLVTVSSAAAGSHHHHHH
B5: CD33/CD3 tandem diabody 13 (bispecific antibody)
chain: DIQMTQSPSSLSASVGDRVTITCRSSTGAVTTSNYANWVQQKPGKAPKGLIGGTNKRAPGVPSRFSGSLIGTDFTLTISSLQPEDFATYYCALWYSNLWVFGQGTKVEIKGGSGGSQVQLVQSGAEVKKPGASVKVSCKASGYTFTSYDINWVRQAPGQGLEWMGWMNPNSGNTGFAQKFQGRVTMTRDTSTSTVYMELSSLRSEDTAVYYCARDRAVTDYYYGMDVWGQGTLVTVSSGGSGQSVLTQPPSASGTPGQRVTISCSGSRSNIGSNTVNWYQQLPGTAPKLLIYGNNQRPSGVPDRFSGSKSGTSASLAISGLQSEDEADYYCATWDDSLIGWVFGGGTKLTVLGGSGGSEVQLVESGGGLVQPGGSLRLSCAASGFTFSTYAMNWVRQAPGKGLEWVGRIRSKYNNYATYYADSVKDRFTISRDDSKNSLYLQMNSLKTEDTAVYYCARHGNFGNSYVSWFAYWGQGTLVTVSS
B6: CD33/CD3 tandem diabody 22 (bispecific antibody)
chain: DIQMTQSPSSLSASVGDRVTITCRSSTGAVTTSNYANWVQQKPGKAPKALIGGTNKRAPGVPSRFSGSLIGDKATLTISSLQPEDFATYYCALWYSNLWVFGQGTKVEIKGGSGGSQVQLVQSGAEVKKPGSSVKVSCKASGGTFSSYGISWVRQAPGQGLEWMGGIIPIFGSAHYAQKFQGRVTITADESTSTAYMELSSLRSEDTAVYYCAREYYYDSSEWAFDIWGQGTLVTVSSGGSGQSVLTQPPSASGTPGQRVTISCSGSSSNIGSNTVKWYQQLPGTAPKLLIYSNNQRSSGVPDRFSGSKSGSSASLAISGLQSEDEADYYCAAWDDSLNGYVFGGGTKLTVLGGSGGSEVQLVESGGGLVQPGGSLRLSCAASGFTFSTYAMNWVRQAPGKGLEWVGRIRSKYNNYATYYADSVKDRFTISRDDSKNSLYLQMNSLKTEDTAVYYCARHGNFGNSYVSYFAYWGQGTLVTVSSAAAGSHHHHHH
B7: CD33/CD3 tandem diabody 02 (bispecific antibody)
chain: DIQMTQSPSSLSASVGDRVTITCRSSTGAVTTSNYANWVQQKPGKAPKGLIGGTNKRAPGVPARFSGSGSGTDFTLTISSLQPEDFATYYCALWYSNLWVFGQGTKVEIKGGSGGSQVQLVQSGAEVKKPGASVKVSCKASGYTFTSYDINWVRQAPGQGLEWMGWMNPNSGNTGFAQKFQGRVTMTRDTSTSTVYMELSSLRSEDTAVYYCARDRAVTDYYYGMDVWGQGTLVTVSSGGSGQSVLTQPPSASGTPGQRVTISCSGSRSNIGSNTVNWYQQLPGTAPKLLIYGNNQRPSGVPDRFSGSKSGTSASLAISGLQSEDEADYYCATWDDSLIGWVFGGGTKLTVLGGSGGSEVQLVESGGGLVQPGGSLRLSCAASGFTFSTYAMNWVRQAPGKGLEWVGRIRSKYNNYATYYADSVKDRFTISRDDSKNSLYLQMNSLKTEDTAVYYCARHGNFGNSYVSWFAYWGQGTLVTVSSAAAGSHHHHHH
B8: CD33/CD3 tandem diabody 12 (bispecific antibody)
chain: B7 chain with G49A, A63S, G69L, S70I, T72D, D73K, F74A, W469Y
B9: CD33/CD3 tandem diabody 03 (bispecific antibody)
chain: B7 chain with V218N, Y222S, Y223F
B10: CD33/CD3 tandem diabody 04 (bispecific antibody)
chain: B7 chain with V218N, Y222S, Y223L
B11: CD33/CD3 tandem diabody 10 (bispecific antibody)
chain: B7 chain with A63S, G69L, S70I, T72D, D73K, F74A, V218N, Y222S, Y223F
B12: CD33/CD3 tandem diabody 11 (bispecific antibody)
chain: B7 chain with A63S, G69L, S70I, T72D, D73K, F74A, V218N, Y222S, Y223L
B13: CD33/CD3 tandem diabody 09 (bispecific antibody)
chain: B7 chain with A63S, G69L, S70I, T72D, D73K, F74A, V218N, Y221F, Y222S, T312S
B14: CD33/CD3 tandem diabody 01 (bispecific antibody)
chain: B7 chain with V218N, Y221F, Y222S, T312S
B15: CD33/CD3 tandem diabody 23 (bispecific antibody)
chain: DIQMTQSPSSLSASVGDRVTITCRSSTGAVTTSNYANWVQQKPGKAPKGLIGGTNKRAPGVPSRFSGSLIGTDFTLTISSLQPEDFATYYCALWYSNLWVFGQGTKVEIKGGSGGSQVQLVQSGAEVKKPGSSVKVSCKASGGTFSSYGISWVRQAPGQGLEWMGGIIPIFGSAHYAQKFQGRVTITADESTSTAYMELSSLRSEDTAVYYCAREYYYDSSEWAFDIWGQGTLVTVSSGGSGQSVLTQPPSASGTPGQRVTISCSGSSSNIGSNTVKWYQQLPGTAPKLLIYSNNQRSSGVPDRFSGSKSGSSASLAISGLQSEDEADYYCAAWDDSLNGYVFGGGTKLTVLGGSGGSEVQLVESGGGLVQPGGSLRLSCAASGFTFSTYAMNWVRQAPGKGLEWVGRIRSKYNNYATYYADSVKDRFTISRDDSKNSLYLQMNSLKTEDTAVYYCARHGNFGNSYVSWFAYWGQGTLVTVSS
B16: CD33/CD3 tandem diabody 07 (bispecific antibody)
chain: DIQMTQSPSSLSASVGDRVTITCRSSTGAVTTSNYANWVQQKPGKAPKALIGGTNKRAPGVPSRFSGSLIGDKATLTISSLQPEDFATYYCALWYSNLWVFGQGTKVEIKGGSGGSQVQLQESGGGVVQPGRSLRLSCAASGFSFSNYGIHWVRQAPGKGLEWVALISYDGNKKFYADSVKGRFAISRDTSKNTVDLQMTSLRPEDTAVYYCAKDRLESAAFDYWGQGTLVTVSSGGSGGSSYELTQPPSVSVAPGQTAMITCGGNNIGSTTVHWYQQKPGQAPVLVVYDDNERPSGIPERFSGSNSGSTATLTINRVEAGDEADYYCQVWDSGSDHVVFGGGTKLTVLGGSGGSEVQLVESGGGLVQPGGSLRLSCAASGFTFSTYAMNWVRQAPGKGLEWVGRIRSKYNNYATYYADSVKDRFTISRDDSKNSLYLQMNSLKTEDTAVYYCARHGNFGNSYVSYFAYWGQGTLVTVSSAAAGSHHHHHH

Target: cynomolgus CD33 (cynomolgus)
Experiment: flow cytometry KDs on CHO cells, cyno CD33 / human CD33

Binder | KD ratio CynoCD33/huCD33
B1 | 0.6
B2 | 0.8
B3 | 0.8
B4 | 1.8
B5 | 1.6
B6 | 0.6
B7 | 1.1
B8 | 1.7
B9 | 0.6
B10 | 1.1
B11 | 0.8
B12 | 1.2
B13 | 1
B14 | 0.7
B15 | 1.9
B16 | 45.8
